Columns and labels:
[1] = biological target: T1, mouse FcγRIII extracellular domain, C-terminal His tag (mouse, UniProt P08508 31-215); assay: SPR (Biacore T200), antibody captured on Protein L, mFcγR analyte
T1 construct: also called mFcγRIII; mFcgRIII
T1 chain: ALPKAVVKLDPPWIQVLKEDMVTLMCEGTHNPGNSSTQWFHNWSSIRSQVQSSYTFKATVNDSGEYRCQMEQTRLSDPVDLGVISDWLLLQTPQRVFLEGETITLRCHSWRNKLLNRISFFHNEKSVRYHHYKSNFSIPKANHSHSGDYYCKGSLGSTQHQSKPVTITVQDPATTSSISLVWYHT
Description: (§1) Each altered antibody was analyzed for its interaction with each Fcγ receptor prepared above using Biacore T100 (GE Healthcare Japan Corp.), Biacore T200 (GE Healthcare Japan Corp.), Biacore A100, or Biacore 4000. The running buffer used was HBS-EP+ (GE Healthcare Japan Corp.). The assay temperature was set to 25° C. The sensor chips used were chips prepared by immobilizing Protein L (ACTIGEN or BioVision) onto Series S Sensor Chip CM5 (GE Healthcare Japan Corp.) or Series S Sensor Chip CM4 (GE Healthcare Japan Corp.) by the amine coupling method.
(§2) In order to calculate the KD value of each altered antibody for FcγR, kinetic analysis was conducted according to the following method: first, the antibody of interest was captured onto any of these chips and allowed to interact with mFcγR diluted with a running buffer. For the obtained sensorgram, the assay results were globally fit into the 1:1 Langmuir binding model using Biacore Evaluation Software to calculate an association rate constant ka (L/mol/s) and a dissociation rate constant kd (1/s). From these values, the dissociation constant KD (mol/L) was calculated.

[2] = biological target: T2, mouse FcγRII extracellular domain, C-terminal His tag (mouse, UniProt P08101 30-210); assay: as above
T2 construct: also called mFcγRII; mFcgRII
T2 sequence: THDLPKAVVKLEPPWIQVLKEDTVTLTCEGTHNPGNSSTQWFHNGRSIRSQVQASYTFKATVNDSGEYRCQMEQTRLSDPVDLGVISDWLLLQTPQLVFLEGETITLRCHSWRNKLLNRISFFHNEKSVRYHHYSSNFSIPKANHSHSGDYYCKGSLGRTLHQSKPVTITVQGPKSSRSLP
Description: as §1, §2

B1: H237-MB813/MRAL-k0 (antibody, mouse IgG1, kappa)
heavy: QVQLQESGPGLVKPSETLSLTCAVSGHSISHDHAWSWVRQPPGEGLEWIGFISYSGITNYNPSLQGRVTISRDNSKNTLYLQMNSLRAEDTAVYYCARSLARTTAMDYWGEGTLVTVSSAKTTPPSVYPLAPGSAAQTNSMVTLGCLVKGYFPEPVTVTWNSGSLSSGVHTFPAVLQSDLYTLSSSVTVPSSTWPSETVTCNVAHPASSTKVDKKIVPRDCGCKPCICEPNEVELVFIFPPKPKDVLTITLTPKVTCVVVDISKDDPEVQFSWFVDDVEVHTAQTQPREEQFNSTFRSVSELPIMHQDWLNGKEFKCRVDSAAFPAFIEKTISKTKGRPKAPQVYTIPPPKEQMAKDKVSLTCMITDFFPEDITVEWQWNGQPAENYKNTQPIMDTDGSYFVYSKLNVQKSNWEAGNTFTCSVLHEGLHNHHTEKSLSHSPGK
light: not shown
notes: copies: 2 + 2
- Kd [1]: 951 nM
- relative mFcγRIII-binding activity (mIgG1 = 1) [1]: 0.3 fold vs H237-mIgG1/MRAL-k0
- Kd [2]: 12.9 nM
- relative mFcγRII-binding activity (mIgG1 = 1) [2]: 16.3 fold vs H237-mIgG1/MRAL-k0

B2: H237-MB815/MRAL-k0 (antibody, mouse IgG1, kappa)
heavy: QVQLQESGPGLVKPSETLSLTCAVSGHSISHDHAWSWVRQPPGEGLEWIGFISYSGITNYNPSLQGRVTISRDNSKNTLYLQMNSLRAEDTAVYYCARSLARTTAMDYWGEGTLVTVSSAKTTPPSVYPLAPGSAAQTNSMVTLGCLVKGYFPEPVTVTWNSGSLSSGVHTFPAVLQSDLYTLSSSVTVPSSTWPSETVTCNVAHPASSTKVDKKIVPRDCGCKPCICEPNEVELVFIFPPKPKDVLTITLTPKVTCVVVDISKDDPEVQFSWFVDDVEVHTAQTQPREEQFNSTFRSVSELPIMHQDWLNGKEFKCRVDSAAFPAPIYKTISKTKGRPKAPQVYTIPPPKEQMAKDKVSLTCMITDFFPEDITVEWQWNGQPAENYKNTQPIMDTDGSYFVYSKLNVQKSNWEAGNTFTCSVLHEGLHNHHTEKSLSHSPGK
light: not shown
notes: copies: 2 + 2
- Kd [1]: 938 nM
- relative mFcγRIII-binding activity (mIgG1 = 1) [1]: 0.3 fold vs H237-mIgG1/MRAL-k0
- Kd [2]: 12 nM
- relative mFcγRII-binding activity (mIgG1 = 1) [2]: 17.6 fold vs H237-mIgG1/MRAL-k0

B3: H237-MB818/MRAL-k0 (antibody, mouse IgG1, kappa)
heavy: QVQLQESGPGLVKPSETLSLTCAVSGHSISHDHAWSWVRQPPGEGLEWIGFISYSGITNYNPSLQGRVTISRDNSKNTLYLQMNSLRAEDTAVYYCARSLARTTAMDYWGEGTLVTVSSAKTTPPSVYPLAPGSAAQTNSMVTLGCLVKGYFPEPVTVTWNSGSLSSGVHTFPAVLQSDLYTLSSSVTVPSSTWPSETVTCNVAHPASSTKVDKKIVPRDCGCKPCICEPNEVELVFIFPPKPKDVLTITLTPKVTCVVVDISKDDPEVQFSWFVDDVEVHTAQTQPREEQFNSTFRSVSELPIMHQDWLNGKEFKCRVMSAAFPAFIEKTISKTKGRPKAPQVYTIPPPKEQMAKDKVSLTCMITDFFPEDITVEWQWNGQPAENYKNTQPIMDTDGSYFVYSKLNVQKSNWEAGNTFTCSVLHEGLHNHHTEKSLSHSPGK
light: not shown
notes: copies: 2 + 2
- Kd [1]: 979 nM
- relative mFcγRIII-binding activity (mIgG1 = 1) [1]: 0.3 fold vs H237-mIgG1/MRAL-k0
- Kd [2]: 13.5 nM
- relative mFcγRII-binding activity (mIgG1 = 1) [2]: 15.6 fold vs H237-mIgG1/MRAL-k0

B4: H237-MB817/MRAL-k0 (antibody, mouse IgG1, kappa)
heavy: QVQLQESGPGLVKPSETLSLTCAVSGHSISHDHAWSWVRQPPGEGLEWIGFISYSGITNYNPSLQGRVTISRDNSKNTLYLQMNSLRAEDTAVYYCARSLARTTAMDYWGEGTLVTVSSAKTTPPSVYPLAPGSAAQTNSMVTLGCLVKGYFPEPVTVTWNSGSLSSGVHTFPAVLQSDLYTLSSSVTVPSSTWPSETVTCNVAHPASSTKVDKKIVPRDCGCKPCICEPNEVELVFIFPPKPKDVLTITLTPKVTCVVVDISKDDPEVQFSWFVDDVEVHTAQTQPREEQFNSTFRSVSELPIMHQDWLNGKEFKCRVMSAGFPAPIEKTISKTKGRPKAPQVYTIPPPKEQMAKDKVSLTCMITDFFPEDITVEWQWNGQPAENYKNTQPIMDTDGSYFVYSKLNVQKSNWEAGNTFTCSVLHEGLHNHHTEKSLSHSPGK
light: not shown
notes: copies: 2 + 2
- Kd [1]: 539 nM
- relative mFcγRIII-binding activity (mIgG1 = 1) [1]: 0.5 fold vs H237-mIgG1/MRAL-k0
- Kd [2]: 7.38 nM
- relative mFcγRII-binding activity (mIgG1 = 1) [2]: 28.5 fold vs H237-mIgG1/MRAL-k0

B5: H237-MB816/MRAL-k0 (antibody, mouse IgG1, kappa)
heavy: QVQLQESGPGLVKPSETLSLTCAVSGHSISHDHAWSWVRQPPGEGLEWIGFISYSGITNYNPSLQGRVTISRDNSKNTLYLQMNSLRAEDTAVYYCARSLARTTAMDYWGEGTLVTVSSAKTTPPSVYPLAPGSAAQTNSMVTLGCLVKGYFPEPVTVTWNSGSLSSGVHTFPAVLQSDLYTLSSSVTVPSSTWPSETVTCNVAHPASSTKVDKKIVPRDCGCKPCICEPNEVELVFIFPPKPKDVLTITLTPKVTCVVVDISKDDPEVQFSWFVDDVEVHTAQTQPREEQFNSTFRSVSELPIMHQDWLNGKEFKCRVMSDAFPAPIEKTISKTKGRPKAPQVYTIPPPKEQMAKDKVSLTCMITDFFPEDITVEWQWNGQPAENYKNTQPIMDTDGSYFVYSKLNVQKSNWEAGNTFTCSVLHEGLHNHHTEKSLSHSPGK
light: not shown
notes: copies: 2 + 2
- Kd [1]: 431 nM
- relative mFcγRIII-binding activity (mIgG1 = 1) [1]: 0.7 fold vs H237-mIgG1/MRAL-k0
- Kd [2]: 6.9 nM
- relative mFcγRII-binding activity (mIgG1 = 1) [2]: 30.4 fold vs H237-mIgG1/MRAL-k0

B6: H237-MB819/MRAL-k0 (antibody, mouse IgG1, kappa)
heavy: QVQLQESGPGLVKPSETLSLTCAVSGHSISHDHAWSWVRQPPGEGLEWIGFISYSGITNYNPSLQGRVTISRDNSKNTLYLQMNSLRAEDTAVYYCARSLARTTAMDYWGEGTLVTVSSAKTTPPSVYPLAPGSAAQTNSMVTLGCLVKGYFPEPVTVTWNSGSLSSGVHTFPAVLQSDLYTLSSSVTVPSSTWPSETVTCNVAHPASSTKVDKKIVPRDCGCKPCICEPNEVELVFIFPPKPKDVLTITLTPKVTCVVVDISKDDPEVQFSWFVDDVEVHTAQTQPREEQFNSTFRSVSELPIMHQDWLNGKEFKCRVMSAAFPAYIEKTISKTKGRPKAPQVYTIPPPKEQMAKDKVSLTCMITDFFPEDITVEWQWNGQPAENYKNTQPIMDTDGSYFVYSKLNVQKSNWEAGNTFTCSVLHEGLHNHHTEKSLSHSPGK
light: not shown
notes: copies: 2 + 2
- Kd [1]: 872 nM
- relative mFcγRIII-binding activity (mIgG1 = 1) [1]: 0.3 fold vs H237-mIgG1/MRAL-k0
- Kd [2]: 11.6 nM
- relative mFcγRII-binding activity (mIgG1 = 1) [2]: 18.1 fold vs H237-mIgG1/MRAL-k0

B7: H237-MB820/MRAL-k0 (antibody, mouse IgG1, kappa)
heavy: QVQLQESGPGLVKPSETLSLTCAVSGHSISHDHAWSWVRQPPGEGLEWIGFISYSGITNYNPSLQGRVTISRDNSKNTLYLQMNSLRAEDTAVYYCARSLARTTAMDYWGEGTLVTVSSAKTTPPSVYPLAPGSAAQTNSMVTLGCLVKGYFPEPVTVTWNSGSLSSGVHTFPAVLQSDLYTLSSSVTVPSSTWPSETVTCNVAHPASSTKVDKKIVPRDCGCKPCICEPNEVELVFIFPPKPKDVLTITLTPKVTCVVVDISKDDPEVQFSWFVDDVEVHTAQTQPREEQFNSTFRSVSELPIMHQDWLNGKEFKCRVMSAAFPAPIYKTISKTKGRPKAPQVYTIPPPKEQMAKDKVSLTCMITDFFPEDITVEWQWNGQPAENYKNTQPIMDTDGSYFVYSKLNVQKSNWEAGNTFTCSVLHEGLHNHHTEKSLSHSPGK
light: not shown
notes: copies: 2 + 2
- Kd [1]: 854 nM
- relative mFcγRIII-binding activity (mIgG1 = 1) [1]: 0.3 fold vs H237-mIgG1/MRAL-k0
- Kd [2]: 10.8 nM
- relative mFcγRII-binding activity (mIgG1 = 1) [2]: 19.5 fold vs H237-mIgG1/MRAL-k0

B8: H237-MB814/MRAL-k0 (antibody, mouse IgG1, kappa)
heavy: QVQLQESGPGLVKPSETLSLTCAVSGHSISHDHAWSWVRQPPGEGLEWIGFISYSGITNYNPSLQGRVTISRDNSKNTLYLQMNSLRAEDTAVYYCARSLARTTAMDYWGEGTLVTVSSAKTTPPSVYPLAPGSAAQTNSMVTLGCLVKGYFPEPVTVTWNSGSLSSGVHTFPAVLQSDLYTLSSSVTVPSSTWPSETVTCNVAHPASSTKVDKKIVPRDCGCKPCICEPNEVELVFIFPPKPKDVLTITLTPKVTCVVVDISKDDPEVQFSWFVDDVEVHTAQTQPREEQFNSTFRSVSELPIMHQDWLNGKEFKCRVDSAAFPAYIEKTISKTKGRPKAPQVYTIPPPKEQMAKDKVSLTCMITDFFPEDITVEWQWNGQPAENYKNTQPIMDTDGSYFVYSKLNVQKSNWEAGNTFTCSVLHEGLHNHHTEKSLSHSPGK
light: not shown
notes: copies: 2 + 2
- Kd [1]: 826 nM
- relative mFcγRIII-binding activity (mIgG1 = 1) [1]: 0.3 fold vs H237-mIgG1/MRAL-k0
- Kd [2]: 11.7 nM
- relative mFcγRII-binding activity (mIgG1 = 1) [2]: 18 fold vs H237-mIgG1/MRAL-k0

Source: US20150203577A1 (Chugai, published 2015)
